Measurements taken from patent publication US20120263644A1.

Legend:
[1] = target: constitutively active LFA-1 expressed on Jurkat T-cell line J-β2.7/LFA-1Δ; test: cell-based or functional assay
[2] = target: leukocyte function antigen-1 (LFA-1), composed of CD11a and CD18, on human white blood cells (human) (UniProt P20701); test: cell-based or functional assay
leukocyte function antigen-1 (LFA-1), composed of CD11a and CD18, on human white blood cells (human), sequence (P20701 26-1170, chain 1 of 2): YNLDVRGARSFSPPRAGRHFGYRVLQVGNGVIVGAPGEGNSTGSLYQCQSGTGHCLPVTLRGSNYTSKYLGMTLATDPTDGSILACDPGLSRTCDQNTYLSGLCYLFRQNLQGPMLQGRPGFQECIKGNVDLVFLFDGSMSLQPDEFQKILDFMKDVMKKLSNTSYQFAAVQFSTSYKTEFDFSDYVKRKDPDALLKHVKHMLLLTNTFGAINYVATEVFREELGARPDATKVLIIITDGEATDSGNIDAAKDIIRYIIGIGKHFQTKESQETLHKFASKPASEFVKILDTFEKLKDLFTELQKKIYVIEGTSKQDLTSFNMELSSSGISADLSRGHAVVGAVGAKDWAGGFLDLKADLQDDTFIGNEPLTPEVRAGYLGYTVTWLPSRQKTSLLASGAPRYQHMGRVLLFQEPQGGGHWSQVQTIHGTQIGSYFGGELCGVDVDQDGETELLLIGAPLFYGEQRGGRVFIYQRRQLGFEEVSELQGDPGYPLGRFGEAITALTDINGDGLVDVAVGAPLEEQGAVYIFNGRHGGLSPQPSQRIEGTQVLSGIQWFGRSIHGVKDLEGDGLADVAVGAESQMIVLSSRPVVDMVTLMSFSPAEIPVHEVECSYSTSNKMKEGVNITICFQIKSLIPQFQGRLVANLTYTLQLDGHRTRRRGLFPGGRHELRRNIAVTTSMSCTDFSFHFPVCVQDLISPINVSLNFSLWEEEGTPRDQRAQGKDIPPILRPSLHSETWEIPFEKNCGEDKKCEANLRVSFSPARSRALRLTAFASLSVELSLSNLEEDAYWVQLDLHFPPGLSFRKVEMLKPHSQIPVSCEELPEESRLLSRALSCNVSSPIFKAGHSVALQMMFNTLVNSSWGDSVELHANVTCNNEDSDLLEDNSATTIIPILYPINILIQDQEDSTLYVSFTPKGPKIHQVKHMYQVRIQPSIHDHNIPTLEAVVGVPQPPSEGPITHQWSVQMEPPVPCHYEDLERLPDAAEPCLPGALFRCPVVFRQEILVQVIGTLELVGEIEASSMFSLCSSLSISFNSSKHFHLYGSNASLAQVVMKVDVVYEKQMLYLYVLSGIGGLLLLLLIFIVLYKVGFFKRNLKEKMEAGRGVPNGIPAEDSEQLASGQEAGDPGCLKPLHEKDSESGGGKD
leukocyte function antigen-1 (LFA-1), composed of CD11a and CD18, on human white blood cells (human), sequence (P05107 23-769, chain 2 of 2, further chain): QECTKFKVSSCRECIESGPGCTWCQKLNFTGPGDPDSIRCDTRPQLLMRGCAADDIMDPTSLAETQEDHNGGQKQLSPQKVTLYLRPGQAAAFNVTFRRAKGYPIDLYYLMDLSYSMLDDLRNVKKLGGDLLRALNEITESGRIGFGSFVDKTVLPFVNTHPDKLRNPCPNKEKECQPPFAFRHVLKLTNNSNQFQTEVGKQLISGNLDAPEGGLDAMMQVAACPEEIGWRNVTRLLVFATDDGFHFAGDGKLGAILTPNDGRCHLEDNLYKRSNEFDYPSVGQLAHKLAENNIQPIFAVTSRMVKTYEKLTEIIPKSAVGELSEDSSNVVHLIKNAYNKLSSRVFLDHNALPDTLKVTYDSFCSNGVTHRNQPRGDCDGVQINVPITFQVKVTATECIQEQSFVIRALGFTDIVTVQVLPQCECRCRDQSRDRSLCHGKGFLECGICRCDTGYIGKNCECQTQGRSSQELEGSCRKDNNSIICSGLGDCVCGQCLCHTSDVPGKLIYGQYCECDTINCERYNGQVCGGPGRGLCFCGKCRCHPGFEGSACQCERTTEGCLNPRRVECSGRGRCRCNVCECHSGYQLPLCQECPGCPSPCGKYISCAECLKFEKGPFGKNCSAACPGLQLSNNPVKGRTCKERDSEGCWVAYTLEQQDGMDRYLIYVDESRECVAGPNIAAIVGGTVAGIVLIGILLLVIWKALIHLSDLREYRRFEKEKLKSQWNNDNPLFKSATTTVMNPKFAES

B1: leukotoxin (LtxA) of Aggregatibacter actinomycetemcomitans strain NJ4500 (protein)
chain: MATTSLLNTKQQAAQFANSVADRAKENIDAAKEQLQKALDKLGKTGKKLTLYIKNYKKGNGLTALIKAAQKLGIEVYHEGKDGPALTNGILNTGKKLLGLTERGLTLFAPELDKWIQGNKHLSNSVGSTGNLTKAIDKVQSVLGTLQAFLNTAFSGMDLDALIKARQNGKNVTDVQLAKASLNLINELIGTISSITNNVDTFSKQLNKLGEALGQVKHFGSFGDKLKNLPKLGNLGKGLGALSGVLSAISAALLLANKDADTATKAAAAAELTNKVLGNIGKAITQYLIAQRAAAGLSTTGPVAGLIASVVSLAISPLSFLGIAKQFDRARMLEEYSKRFKKFGYNGDSLLGQFYKNTGIADAAITTINTVLSAIAAGVGAASAGSLVGAPIGLLVSAITSLISGILDASKQAVFEHIANQLADKIKAWENKYGKNYFENGYDARHSAFLEDSLKLFNELREKYKTENILSITQQGWDQRIGELAGITRNGDRIQSGKAYVDYLKKGEELAKHSDKFTKQILDPIKGNIDLSGIKGSTTLTFLNPLLTAGKEERKTRQSGKYEFITELKVKGRTDWKVKGVPNSNGVYDFSNLIQHAVTRDNKVLEARLIANLGAKDDYVFVGSGSTIVNAGDGYDVVDYSKGRTGALTIDGRNATKAGQYKVERDLSGTQVLQETVSKQETKRGKVTDLLEYRNYKLDYYYTNKGFKAHDELNSVEEIIGSTLRDKFYGSKFNDVFHGHDGDDLIYGYDGDDRLYGDNGNDEIHGGQGNDKLYGGAGNDRLFGEYGNNYLDGGEGDDHLEGGNGSDILRGGSGNDKLFGNQGDDLLDGGEGDDQLAGGEGNDIYVYRKEYGHHTITEHSGDKDKLSLANINLKDVSFERNGNDLLLKTNNRTAVTFKGWFSKPNSSAGLDEYQRKLLEYAPEKDRARLKRQFELQRGKVDKSLNNKVEEIIGKDGERITSQDIDNLFDKSGNKKTISPQELAGLIKNKGKSSSLMSSSRSSSMLTQKSGLSNDISRIISATSGFGSSGKALSASPLQTNNNFNSYANSLATTAA
[1]
  sensitivity to LtxA-mediated toxicity, J-β2.7/LFA-1Δ cells against J-β2.7/LFA-1 wt cells: 10 times
[2]
  50% effective dose (ED50) of LtxA against gp120-treated CD4 T cells, cell viability by cellular ATP after 20 hrs: 0.367 µg/mL
  ED50 of LtxA against mutant gp120-treated CD4 T cells, cell viability by cellular ATP after 20 hrs: 0.44 µg/mL
  ED50 of LtxA against untreated CD4 T cells, cell viability by cellular ATP after 20 hrs: 0.437 µg/mL
  IC50 of inhibition of proliferation of Jurkat cells after 72 hours (CellTiter Glo): 0.25 µg/mL
  percent of CD3+ T lymphocytes expressing high levels of LFA-1 after LtxA treatment of PBMCs (approximately 11% before), flow cytometry: 0.4%
  percent of CD4 T cells activated by surface-bound anti-CD3 and anti-CD28 killed by LtxA at 390 and 780 ng/ml: 100%
  percent of untreated CD4 T cells susceptible to LtxA at 390 and 780 ng/ml: 50%
